For the experiment, the target named is T1, T7-DHX34 (wild-type) (human, UniProt Q14147 1-1143).
T1 construct: Human DHX34, wild type; also called T7-tagged DHX34; shRNA-resistant (R) wild-type T7-DHX34; source: HEK293T, transiently transfected, in lysate; also purified on T7 agarose beads
T1 sequence (looked up): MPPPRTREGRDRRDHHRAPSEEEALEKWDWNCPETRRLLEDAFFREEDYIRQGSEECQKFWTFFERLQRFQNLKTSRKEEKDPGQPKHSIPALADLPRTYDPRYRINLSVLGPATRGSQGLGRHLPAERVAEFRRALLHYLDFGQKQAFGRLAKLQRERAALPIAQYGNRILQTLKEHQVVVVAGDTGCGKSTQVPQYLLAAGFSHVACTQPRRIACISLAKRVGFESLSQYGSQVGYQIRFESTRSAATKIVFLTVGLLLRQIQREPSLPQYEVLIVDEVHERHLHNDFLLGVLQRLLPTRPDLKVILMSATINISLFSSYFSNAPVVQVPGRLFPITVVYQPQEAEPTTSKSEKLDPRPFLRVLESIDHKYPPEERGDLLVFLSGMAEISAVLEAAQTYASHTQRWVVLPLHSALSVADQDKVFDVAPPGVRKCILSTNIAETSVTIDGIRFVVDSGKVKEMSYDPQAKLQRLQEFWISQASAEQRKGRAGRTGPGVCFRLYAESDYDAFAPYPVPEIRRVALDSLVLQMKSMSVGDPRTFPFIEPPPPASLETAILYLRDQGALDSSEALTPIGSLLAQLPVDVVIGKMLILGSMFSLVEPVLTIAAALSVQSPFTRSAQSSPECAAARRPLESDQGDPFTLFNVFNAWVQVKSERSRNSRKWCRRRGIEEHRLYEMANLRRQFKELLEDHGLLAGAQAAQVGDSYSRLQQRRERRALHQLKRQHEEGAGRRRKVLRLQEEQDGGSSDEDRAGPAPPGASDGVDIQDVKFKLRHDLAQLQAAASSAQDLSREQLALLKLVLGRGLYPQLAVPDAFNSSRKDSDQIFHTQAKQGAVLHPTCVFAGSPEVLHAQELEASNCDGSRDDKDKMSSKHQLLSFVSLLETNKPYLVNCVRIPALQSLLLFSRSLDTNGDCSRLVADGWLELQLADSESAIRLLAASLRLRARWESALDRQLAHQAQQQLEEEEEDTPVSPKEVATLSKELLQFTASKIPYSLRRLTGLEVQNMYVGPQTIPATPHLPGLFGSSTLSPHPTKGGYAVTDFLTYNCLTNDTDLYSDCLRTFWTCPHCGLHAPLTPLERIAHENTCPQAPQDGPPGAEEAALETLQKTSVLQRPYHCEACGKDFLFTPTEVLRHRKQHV
The experiment can be described thus: pull-down; purified T7-DHX34 (wild-type or deletion constructs) on T7 agarose beads incubated with recombinant UPF1, UPF2, UPF3b or purified full-length FLAG-UPF1 in buffer D for 2 hr at 4°C. Particulars: both partners purified.

B1: FLAG-UPF1 (wild-type) (natural protein, human, UniProt Q92900-2 1-1118, looked up)
chain: MSVEAYGPSSQTLTFLDTEEAELLGADTQGSEFEFTDFTLPSQTQTPPGGPGGPGGGGAGGPGGAGAGAAAGQLDAQVGPEGILQNGAVDDSVAKTSQLLAELNFEEDEEDTYYTKDLPIHACSYCGIHDPACVVYCNTSKKWFCNGRGNTSGSHIVNHLVRAKCKEVTLHKDGPLGETVLECYNCGCRNVFLLGFIPAKADSVVVLLCRQPCASQSSLKDINWDSSQWQPLIQDRCFLSWLVKIPSEQEQLRARQITAQQINKLEELWKENPSATLEDLEKPGVDEEPQHVLLRYEDAYQYQNIFGPLVKLEADYDKKLKESQTQDNITVRWDLGLNKKRIAYFTLPKTDSDMRLMQGDEICLRYKGDLAPLWKGIGHVIKVPDNYGDEIAIELRSSVGAPVEVTHNFQVDFVWKSTSFDRMQSALKTFAVDETSVSGYIYHKLLGHEVEDVIIKCQLPKRFTAQGLPDLNHSQVYAVKTVLQRPLSLIQGPPGTGKTVTSATIVYHLARQGNGPVLVCAPSNIAVDQLTEKIHQTGLKVVRLCAKSREAIDSPVSFLALHNQIRNMDSMPELQKLQQLKDETGELSSADEKRYRALKRTAERELLMNADVICCTCVGAGDPRLAKMQFRSILIDESTQATEPECMVPVVLGAKQLILVGDHCQLGPVVMCKKAAKAGLSQSLFERLVVLGIRPIRLQVQYRMHPALSAFPSNIFYEGSLQNGVTAADRVKKGFDFQWPQPDKPMFFYVTQGQEEIASSGTSYLNRTEAANVEKITTKLLKAGAKPDQIGIITPYEGQRSYLVQYMQFSGSLHTKLYQEVEIASVDAFQGREKDFIILSCVRANEHQGIGFLNDPRRLNVALTRARYGVIIVGNPKALSKQPLWNHLLNYYKEQKVLVEGPLNNLRESLMQFSKPRKLVNTINPGARFMTTAMYDAREAIIPGSVYDRSSQGRPSSMYFQTHDQIGMISAGPSHVAAMNIPIPFNLVMPPMPPPGYFGQANGPAAGRGTPKGKTGRGGRQKNRFGLPGPSQTNLPNSQASQDVASQPFSQGALTQGYISMSQPSQMSQPGLSQPELSQDSYLGDEFKSQIDVALSQDSTYQGERAYQHGGVTGLSQY
notes: UPF1, human, full length; Plasmid named pcDNA3 x FLAG-UPF1 in the methods; also called purified full-length FLAG-UPF1; source: HEK293T, transiently transfected, in lysate
For B1, the binding result is listed as “binds”.
